Changes are numbered by the printed parent chain.
T1: r GALR3 (Rattus norvegicus, UniProt O88626)
T1 sequence (O88626 1-370): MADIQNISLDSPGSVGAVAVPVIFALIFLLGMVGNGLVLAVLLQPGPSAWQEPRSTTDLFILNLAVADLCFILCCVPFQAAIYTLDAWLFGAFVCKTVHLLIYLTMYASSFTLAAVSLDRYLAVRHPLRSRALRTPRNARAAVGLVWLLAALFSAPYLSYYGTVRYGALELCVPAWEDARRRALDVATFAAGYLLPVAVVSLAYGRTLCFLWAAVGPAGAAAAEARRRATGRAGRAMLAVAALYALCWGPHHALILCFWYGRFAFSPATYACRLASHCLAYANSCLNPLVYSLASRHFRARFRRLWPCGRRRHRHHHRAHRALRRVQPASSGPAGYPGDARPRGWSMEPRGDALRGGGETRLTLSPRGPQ

B1: hGαq/s9: human Gαq with 9 C-terminal amino acids of Gαs (protein)
chain: MTLESIMACCLSEEAKEARRINDEIERQLRRDKRDARRELKLLLLGTGESGKSTFIKQMRIIHGSGYSDEDKRGFTKLVYQNIFTAMQAMIRAMDTLKIPYKYEHNKAHAQLVREVDVEKVSAFENPYVDAIKSLWNDPGIQECYDRRREYQLSDSTKYYLNDLDRVADPSYLPTQQDVLRVRVPTTGIIEYPFDLQSVIFRMVDVGGQRSERRKWIHCFENVTSIMFLVALSEYDQVLVESDNENRMEESKALFRTIITYPWFQNSSVILFLNKKDLLEEKIMYSHLVDYFPEYDGPQRDAQAAREFILKMFVDLNPDSDKIIYSHFTCATDTENIRFVFAAVKDTILQMHLRQYELL
B2: human Gαq/i3(5): human Gαq with five C-terminal amino acids of Gαi3 (protein)
chain: B1 chain with M351L, H352N, R354K, Q355E, Y356C, E357G, L359Y
B3: hGαq/s5: human Gαq with 5 C-terminal amino acids of Gαs (protein)
chain: B1 chain with M351L, H352N, R354K
B4: C. elegans Gαq/i3(5): C. elegans Gαq with five C-terminal amino acids of Gαi3 (SEQ ID NO: 5) (protein)
chain: MACCLSEEAREQKRINQEIEKQLQRDKRNARRELKLLLLGTGESGKSTFIKQMRIIHGQGYSEEDKRAHIRLVYQNVFMAIQSMIRAMDTLDIKFGNESEELQEKAAVVREVDFESVTSFEEPYVSYIKELWEDSGIQECYDRRREYQLTDSAKYYLSDLRRLAVPDYLPTEQDILRVRVPTTGIIEYPFDLEQIIFRMVDVGGQRSERRKWIHCFENVTSIMFLVALSEYDQVLVECDNENRMEESKALFRTIITYPWFTNSSVILFLNKKDLLEEKILYSHLADYFPEYDGPPRDPIAAREFILKMFVDLNPDADKIIYSHFTCATDTENIRFVFAAVKDTILQHNLKECGLY
modifications: C. elegans
B5: dGαq/z5: D. melanogaster Gαq chimera containing the five C-terminal amino acids of human Gαz (SEQ ID NO: 41) (protein)
chain: MECCLSEEAKEQKRINQEIEKQLRRDKRDARRELKLLLLGTGESGKSTFIKQMRIIHGSGYSDEDKRGYIKLVFQNIFMAMQSMIKAMDMLKISYGQGEHSELADLVMSIDYETVTTFEDPYLNAIKTLWDDAGIQECYDRRREYQLTDSAKYYLKDLDRVAQPAYLPTEQDILRVRVPTTGIIEYPFDLEEIRFRMVDVGGQRSERRKWIHCFENVTSIIFLVALSEYDQILFESDNENRMEESKALFRTIITYPWFQNSSVILFLNKKDLLEEKIMYSHLVDYFPEYDGPQRDAITAREFILRMFVDLNPDSEKIIYSHFTCATDTENIRFVFAAVKDTILQSNLKYIGLC
modifications: Drosophila melanogaster
B6: cGαq/s21: C. elegans Gαq with C-terminal Gαs tail of 21 amino acids (SEQ ID NO: 4) (protein)
chain: MACCLSEEAREQKRINQEIEKQLQRDKRNARRELKLLLLGTGESGKSTFIKQMRIIHGQGYSEEDKRAHIRLVYQNVFMAIQSMIRAMDTLDIKFGNESEELQEKAAVVREVDFESVTSFEEPYVSYIKELWEDSGIQECYDRRREYQLTDSAKYYLSDLRRLAVPDYLPTEQDILRVRVPTTGIIEYPFDLEQIIFRMVDVGGQRSERRKWIHCFENVTSIMFLVALSEYDQVLVECDNENRMEESKALFRTIITYPWFTNSSVILFLNKKDLLEEKILYSHLADYFPEYDGPPRDPIAAREFILKMFVDLNPDADKIIYSHFTCATDTENIRRVFNDCRDIIQRMHLRQYELL
modifications: C. elegans

Experiments:
Experiment in all cases: Calcium mobilization (FLIPR, Fluo-3) in transfected COS-7 cells
Format in all cases: cell-based
h D1 = biological target: T2, h D1 (Homo sapiens, UniProt P21728)
T2 construct: expressed in transfected cells; host or cells: COS-7
T2 sequence (P21728 whole entry): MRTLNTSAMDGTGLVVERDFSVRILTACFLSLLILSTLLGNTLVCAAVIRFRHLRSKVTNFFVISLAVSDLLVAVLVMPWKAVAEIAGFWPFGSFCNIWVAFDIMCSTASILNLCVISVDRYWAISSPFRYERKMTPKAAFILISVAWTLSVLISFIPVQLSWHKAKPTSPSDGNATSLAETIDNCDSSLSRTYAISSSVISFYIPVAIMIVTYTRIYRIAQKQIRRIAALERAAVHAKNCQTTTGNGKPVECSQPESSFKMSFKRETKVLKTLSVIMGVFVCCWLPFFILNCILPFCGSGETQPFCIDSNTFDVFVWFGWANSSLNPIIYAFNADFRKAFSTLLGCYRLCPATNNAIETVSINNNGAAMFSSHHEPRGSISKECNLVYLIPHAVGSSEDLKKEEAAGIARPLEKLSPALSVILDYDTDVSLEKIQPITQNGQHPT
Description: (§1) COS-7 cells were cultured in 225 cm^2 flasks in Dulbecco's Modified Eagle Medium (DMEM) with supplements (10% bovine calf serum, 4 mM glutamine, 100 units/ml penicillin and 100 μg/ml streptomycin) at 37° C., 5% CO2. Stock plates of COS-7 cells were trypsinized and split 1:6 every 3–4 days.
For evaluating the function of a single chimeric G protein, the standard cDNA transfection ratio was 1:1 (10 μg GPCR cDNA and 10 μg chimeric G protein cDNA). For evaluating the function of a mixture of chimeric G proteins, the standard cDNA transfection ratio was 8:1:1 (16 μg GPCR cDNA, 2 μg Gαq/z cDNA, 2 μg Gαq/s cDNA).
Twenty four hours after transient transfection, COS-7 cells were seeded into 96-well black wall microtiter plates coated with poly-D-lysine for assay the following day. […] After excess dye was discarded, cells were washed in assay buffer and layered with a final volume equal to 100 μl/well. Basal fluorescence was monitored in a fluorometric imaging plate reader (FLIPR™, Molecular Devices) with an excitation wavelength of 488 nm and an emission range of 500 to 560 nm. Laser excitation energy was adjusted so that basal fluorescence readings were approximately 10,000 relative fluorescent units. Cells were stimulated with agonists diluted in assay buffer (50 μl), and relative fluorescent units were measured at defined intervals (exposure=0.4 sec) over a 3 min period at room temperature. Maximum change in fluorescence was calculated for each well. Concentration-response curves derived from the maximum change in fluorescence were analyzed by nonlinear regression (Hill equation).

h D5 = h D5 (Homo sapiens, UniProt P21918); conditions: h D5 + chimera in COS-7; agonist DA, max 100 μM
h D5, sequence (P21918 whole entry): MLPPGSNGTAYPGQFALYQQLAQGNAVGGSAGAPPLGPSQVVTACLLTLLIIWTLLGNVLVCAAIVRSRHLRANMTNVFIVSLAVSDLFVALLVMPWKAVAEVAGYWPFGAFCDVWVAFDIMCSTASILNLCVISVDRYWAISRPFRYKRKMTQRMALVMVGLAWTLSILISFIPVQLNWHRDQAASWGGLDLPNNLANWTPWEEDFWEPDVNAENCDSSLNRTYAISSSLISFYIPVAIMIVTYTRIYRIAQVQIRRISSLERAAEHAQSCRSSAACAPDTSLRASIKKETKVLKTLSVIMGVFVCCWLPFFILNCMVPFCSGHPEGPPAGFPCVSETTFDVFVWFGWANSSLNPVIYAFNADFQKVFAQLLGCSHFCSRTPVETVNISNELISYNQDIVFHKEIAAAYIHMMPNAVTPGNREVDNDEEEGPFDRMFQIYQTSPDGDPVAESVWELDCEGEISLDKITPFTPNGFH
Description: as §1
(§2) GPCR and chimeric G protein cDNAs were transiently transfected into COS-7 cells in 150 cm^2 flasks by the DEAE-dextran method (Cullen, 1987), using a total of 20 μg of DNA/˜7×10^6 cells. For evaluating the function of a single chimeric G protein, the standard cDNA transfection ratio was 1:1 (10 μg GPCR cDNA and 10 μg chimeric G protein cDNA). For evaluating the function of a mixture of chimeric G proteins, the standard cDNA transfection ratio was 8:1:1 (16 μg GPCR cDNA, 2 μg Gαq/z cDNA, 2 μg Gαq/s cDNA).
(§3) Twenty four hours after transient transfection, COS-7 cells were seeded into 96-well black wall microtiter plates coated with poly-D-lysine for assay the following day. Just prior to assay, culture medium was aspirated and cells were dye-loaded with 4 μM Fluo-3/0.01% pluronic acid in assay buffer composed of Hank's Balanced Salt Solution (138 mM NaCl, 5 mM KCl, 1.3 mM CaCl2, 0.5 mM MgCl2, 0.4 mM MgSO4, 0.3 mM KH2PO4, 0.3 mM Na2HPO4, 5.6 mM glucose) plus 20 mM HEPES (pH 7.4), 0.1% BSA and 2.5 mM probenicid (100 μl/well) for 1 hour in 5% CO2 at 37° C. After excess dye was discarded, cells were washed in assay buffer and layered with a final volume equal to 100 μl/well. Basal fluorescence was monitored in a fluorometric imaging plate reader (FLIPR™, Molecular Devices) with an excitation wavelength of 488 nm and an emission range of 500 to 560 nm. Laser excitation energy was adjusted so that basal fluorescence readings were approximately 10,000 relative fluorescent units. Cells were stimulated with agonists diluted in assay buffer (50 μl), and relative fluorescent units were measured at defined intervals (exposure=0.4 sec) over a 3 min period at room temperature. Maximum change in fluorescence was calculated for each well. Concentration-response curves derived from the maximum change in fluorescence were analyzed by nonlinear regression (Hill equation).

h 5HT6 = h 5HT6 (Homo sapiens, UniProt P50406); conditions: h 5HT6 + chimera in COS-7; agonist 5HT, max 100 μM
h 5HT6, sequence (P50406 whole entry): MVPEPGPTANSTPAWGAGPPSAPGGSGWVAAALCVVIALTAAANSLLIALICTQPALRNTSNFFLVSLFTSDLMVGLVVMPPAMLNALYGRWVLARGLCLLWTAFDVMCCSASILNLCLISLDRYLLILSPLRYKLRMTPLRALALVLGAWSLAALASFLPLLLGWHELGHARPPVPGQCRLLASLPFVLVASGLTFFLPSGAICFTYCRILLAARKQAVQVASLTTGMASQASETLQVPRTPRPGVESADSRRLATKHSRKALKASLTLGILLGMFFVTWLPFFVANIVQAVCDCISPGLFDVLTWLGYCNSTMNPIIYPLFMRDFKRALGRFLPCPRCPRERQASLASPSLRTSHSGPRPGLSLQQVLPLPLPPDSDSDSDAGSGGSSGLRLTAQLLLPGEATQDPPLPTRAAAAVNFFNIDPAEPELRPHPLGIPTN
Description: as §1, §2, §3

h 5HT7 = h 5HT7 (Homo sapiens, UniProt P34969); conditions: h 5HT7 + chimera in COS-7; agonist 5HT, max 100 μM
h 5HT7, sequence (P34969 whole entry): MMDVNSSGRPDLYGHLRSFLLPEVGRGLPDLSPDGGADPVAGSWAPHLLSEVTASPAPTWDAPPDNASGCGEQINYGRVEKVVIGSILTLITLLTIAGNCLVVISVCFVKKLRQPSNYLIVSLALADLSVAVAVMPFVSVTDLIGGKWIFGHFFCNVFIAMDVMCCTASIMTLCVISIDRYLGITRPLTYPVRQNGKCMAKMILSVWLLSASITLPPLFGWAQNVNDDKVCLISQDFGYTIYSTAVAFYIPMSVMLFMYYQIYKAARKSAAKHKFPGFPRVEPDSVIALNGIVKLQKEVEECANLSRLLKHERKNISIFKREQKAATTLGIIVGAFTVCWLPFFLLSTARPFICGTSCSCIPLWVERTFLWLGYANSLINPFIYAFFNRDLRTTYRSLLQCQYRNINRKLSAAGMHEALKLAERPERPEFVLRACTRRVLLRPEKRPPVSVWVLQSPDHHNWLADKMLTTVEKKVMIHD
Description: as §1, §2, §3

h β2 adr = h β2 adr (Homo sapiens, UniProt P07550); conditions: h β2 adr + chimera in COS-7; agonist NE, max 100 μM
Description: as §1, §2, §3

h 5HT4 = h 5HT4 (Homo sapiens, UniProt Q13639); conditions: h 5HT4 + chimera in COS-7; agonist 5HT, max 100 μM
h 5HT4, sequence (Q13639 whole entry): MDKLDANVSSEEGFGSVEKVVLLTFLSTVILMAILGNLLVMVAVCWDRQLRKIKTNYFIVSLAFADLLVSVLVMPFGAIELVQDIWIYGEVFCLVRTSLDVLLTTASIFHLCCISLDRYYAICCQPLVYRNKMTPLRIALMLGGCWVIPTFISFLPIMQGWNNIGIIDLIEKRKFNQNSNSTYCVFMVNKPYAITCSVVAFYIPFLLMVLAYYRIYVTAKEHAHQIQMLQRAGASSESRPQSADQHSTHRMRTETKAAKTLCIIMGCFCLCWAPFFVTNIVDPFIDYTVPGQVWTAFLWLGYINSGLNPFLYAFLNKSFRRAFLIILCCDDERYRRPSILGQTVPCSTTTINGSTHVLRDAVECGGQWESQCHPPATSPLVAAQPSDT
Description: as §1, §2, §3

h GLP-1 = h GLP-1 (Homo sapiens, UniProt P43220); conditions: h GLP-1 + chimera in COS-7; agonist GLP-1, max 10 μM
h GLP-1, sequence (P43220 24-463): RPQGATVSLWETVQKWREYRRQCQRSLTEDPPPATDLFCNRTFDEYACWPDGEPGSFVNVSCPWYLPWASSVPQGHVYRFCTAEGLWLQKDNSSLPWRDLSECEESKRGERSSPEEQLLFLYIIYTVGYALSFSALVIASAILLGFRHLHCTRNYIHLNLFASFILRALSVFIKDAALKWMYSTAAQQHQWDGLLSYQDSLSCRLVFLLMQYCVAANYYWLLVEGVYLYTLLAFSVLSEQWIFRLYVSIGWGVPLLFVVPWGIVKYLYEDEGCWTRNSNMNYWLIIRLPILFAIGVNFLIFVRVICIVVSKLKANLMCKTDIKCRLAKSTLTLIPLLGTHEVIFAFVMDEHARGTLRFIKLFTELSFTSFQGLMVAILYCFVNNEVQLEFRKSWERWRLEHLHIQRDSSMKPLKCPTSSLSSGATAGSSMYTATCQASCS
Description: as §1, §2, §3

r GALR3 = biological target: T1, r GALR3; conditions: COS-7 cells transfected with the rat GALR3 receptor; n=4
Description: as §1, §2, §3

[1] = h D1 + chimera in COS-7, agonist DA, max 100 μM

| Molecule | MAXIMAL SIGNAL (FLUORESCENCE UNITS) (h D1; [1]) | MAXIMAL SIGNAL (FLUORESCENCE UNITS) (h D5) | MAXIMAL SIGNAL (FLUORESCENCE UNITS) (h 5HT6) | MAXIMAL SIGNAL (FLUORESCENCE UNITS) (h 5HT7) | MAXIMAL SIGNAL (FLUORESCENCE UNITS) (h β2 adr) | MAXIMAL SIGNAL (FLUORESCENCE UNITS) (h 5HT4) | MAXIMAL SIGNAL (FLUORESCENCE UNITS) (h GLP-1) | maximum signal produced by porcine galanin (r GALR3) | MAXIMAL SIGNAL (FLUORESCENCE UNITS) (h D1; human D1 receptors in COS-7, 10 μg chimera cDNA and 10 μg receptor cDNA, 100 μM dopamine, Table 9 parallel comparison, mean of two experiments) |
| --- | --- | --- | --- | --- | --- | --- | --- | --- | --- |
| B1 | 5692 fluorescence units | 745 fluorescence units | 999 fluorescence units | 0 fluorescence units | 1439 fluorescence units | 2309 fluorescence units | 4198 fluorescence units |  |  |
| B2 |  |  |  |  |  |  |  | 2084 relative fluorescent units |  |
| B3 |  | 0 fluorescence units | 98 fluorescence units | 0 fluorescence units | 43 fluorescence units | 1709 fluorescence units | 189 fluorescence units |  |  |
| B4 |  |  |  |  |  |  |  | 2564 relative fluorescent units |  |
| B5 |  |  |  |  |  |  |  |  | 2149 fluorescence units |
| B6 | 9433 fluorescence units | 3385 fluorescence units | 1009 fluorescence units | 206 fluorescence units | 3513 fluorescence units | 1731 fluorescence units | 3120 fluorescence units |  |  |

Source: patent publication US7067277B1, “Chimeric G proteins and uses thereof” (H. Lundbeck A/S, priority 1999, dated 2006)
